{
  "source": "patent US20250011739",
  "about": "“ENGINEERED CAS PROTEIN AND USE THEREOF” (SHANDONG SHUNFENG BIOTECHNOLOGY CO.LTD., published 2025)",
  "test_in_all_cases": "cell_activity; PAM ATG; GFP reporter in CHO cells",
  "key": {"Cas12j19 WT": {"biological_target": "T1, Cas12j19 WT", "T1 chain": "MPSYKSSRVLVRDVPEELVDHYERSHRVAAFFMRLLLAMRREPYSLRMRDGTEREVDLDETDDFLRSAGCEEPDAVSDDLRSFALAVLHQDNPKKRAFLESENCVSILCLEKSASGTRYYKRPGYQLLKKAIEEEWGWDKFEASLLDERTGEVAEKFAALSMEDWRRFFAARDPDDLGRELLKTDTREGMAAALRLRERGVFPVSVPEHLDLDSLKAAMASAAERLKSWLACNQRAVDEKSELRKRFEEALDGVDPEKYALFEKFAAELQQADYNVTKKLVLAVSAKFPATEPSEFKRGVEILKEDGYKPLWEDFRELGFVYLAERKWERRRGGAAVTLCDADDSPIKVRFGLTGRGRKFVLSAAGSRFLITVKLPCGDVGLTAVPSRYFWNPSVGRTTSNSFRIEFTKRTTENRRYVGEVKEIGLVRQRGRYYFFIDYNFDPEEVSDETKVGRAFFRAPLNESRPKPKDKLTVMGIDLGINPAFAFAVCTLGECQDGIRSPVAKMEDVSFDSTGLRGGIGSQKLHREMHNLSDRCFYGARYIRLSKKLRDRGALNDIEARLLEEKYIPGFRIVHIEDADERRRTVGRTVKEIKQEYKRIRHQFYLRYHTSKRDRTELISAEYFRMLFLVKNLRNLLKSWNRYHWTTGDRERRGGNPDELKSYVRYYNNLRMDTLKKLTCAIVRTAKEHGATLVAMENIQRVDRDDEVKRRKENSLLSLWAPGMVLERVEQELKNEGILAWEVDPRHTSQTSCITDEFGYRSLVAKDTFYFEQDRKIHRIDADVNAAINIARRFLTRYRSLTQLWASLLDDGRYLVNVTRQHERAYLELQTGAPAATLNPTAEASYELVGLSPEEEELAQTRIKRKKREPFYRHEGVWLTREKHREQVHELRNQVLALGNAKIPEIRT", "excerpt": "(§1) With reference to (Yang, Yi, et al. “Highly efficient and rapid detection of the cleavage activity of Cas9/gRNA via a fluorescent reporter.” Applied biochemistry and biotechnology 180.4 (2016): 655-667.), a fluorescent reporter system for verification of Cas12j19 cleavage was constructed, where a fluorescent reporter vector carried an RFP and a non-luminous GFFP, and a Cas vector carried a CFP. A target FUT8-3: […] (SEQ ID NO: 28) on a GFFP sequence was selected for testing, where an underlined part was a PAM sequence. A DR sequence was […] (SEQ ID NO: 29). 48 h after a CHO cell was transfected, a proportion of GFP fluorescence in CFP and RFP fluorescence was determined by FCM to determine an editing efficiency.\n(§2) In this example, in SEQ ID NO: 19, an amino acid 100 was mutated into K, an amino acid 400 was mutated into R, and an amino acid 763 was mutated into R to obtain a three site-mutated protein E100K-S400R-L763R; and in SEQ ID NO: 19, an amino acid 100 was mutated into K, an amino acid 400 was mutated into R, an amino acid 763 was mutated into R, and an amino acid 45 was mutated into T to obtain a four site-mutated protein E100K-S400R-L763R-S45T."}, "enCas-SF02 (Cas12j19 …)": {"biological_target": "T2, enCas-SF02 (Cas12j19 E100K-S400R-L763R-S45T) (E100K,S400R,L763R,S45T)", "T2 chain": "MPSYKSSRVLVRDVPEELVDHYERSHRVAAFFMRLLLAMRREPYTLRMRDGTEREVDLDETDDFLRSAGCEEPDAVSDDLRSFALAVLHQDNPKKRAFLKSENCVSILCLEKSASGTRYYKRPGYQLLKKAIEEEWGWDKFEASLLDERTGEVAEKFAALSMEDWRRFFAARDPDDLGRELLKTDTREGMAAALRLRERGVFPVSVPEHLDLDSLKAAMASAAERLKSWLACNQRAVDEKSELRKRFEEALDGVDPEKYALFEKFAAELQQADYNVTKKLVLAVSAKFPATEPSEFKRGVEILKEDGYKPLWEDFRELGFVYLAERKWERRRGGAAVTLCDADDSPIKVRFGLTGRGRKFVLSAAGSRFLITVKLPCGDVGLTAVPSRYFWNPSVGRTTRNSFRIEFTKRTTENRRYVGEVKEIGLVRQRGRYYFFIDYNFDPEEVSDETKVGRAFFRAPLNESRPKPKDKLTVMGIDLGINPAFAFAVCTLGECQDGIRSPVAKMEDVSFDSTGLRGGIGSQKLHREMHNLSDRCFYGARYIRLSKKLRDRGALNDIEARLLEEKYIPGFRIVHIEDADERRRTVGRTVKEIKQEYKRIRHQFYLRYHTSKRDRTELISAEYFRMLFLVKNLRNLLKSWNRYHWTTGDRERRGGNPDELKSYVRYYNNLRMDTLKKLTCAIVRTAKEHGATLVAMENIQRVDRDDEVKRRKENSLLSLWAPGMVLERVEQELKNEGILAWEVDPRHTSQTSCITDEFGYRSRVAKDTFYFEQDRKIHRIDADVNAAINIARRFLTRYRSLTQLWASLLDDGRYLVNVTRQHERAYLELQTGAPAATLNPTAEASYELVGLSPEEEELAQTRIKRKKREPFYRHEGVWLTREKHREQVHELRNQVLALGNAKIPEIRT", "excerpt": "as §1, §2"}, "[1]": {"biological_target": "T3, Cas12j19 E100K-S400R-L763R (E100K,S400R,L763R)", "T3 chain": "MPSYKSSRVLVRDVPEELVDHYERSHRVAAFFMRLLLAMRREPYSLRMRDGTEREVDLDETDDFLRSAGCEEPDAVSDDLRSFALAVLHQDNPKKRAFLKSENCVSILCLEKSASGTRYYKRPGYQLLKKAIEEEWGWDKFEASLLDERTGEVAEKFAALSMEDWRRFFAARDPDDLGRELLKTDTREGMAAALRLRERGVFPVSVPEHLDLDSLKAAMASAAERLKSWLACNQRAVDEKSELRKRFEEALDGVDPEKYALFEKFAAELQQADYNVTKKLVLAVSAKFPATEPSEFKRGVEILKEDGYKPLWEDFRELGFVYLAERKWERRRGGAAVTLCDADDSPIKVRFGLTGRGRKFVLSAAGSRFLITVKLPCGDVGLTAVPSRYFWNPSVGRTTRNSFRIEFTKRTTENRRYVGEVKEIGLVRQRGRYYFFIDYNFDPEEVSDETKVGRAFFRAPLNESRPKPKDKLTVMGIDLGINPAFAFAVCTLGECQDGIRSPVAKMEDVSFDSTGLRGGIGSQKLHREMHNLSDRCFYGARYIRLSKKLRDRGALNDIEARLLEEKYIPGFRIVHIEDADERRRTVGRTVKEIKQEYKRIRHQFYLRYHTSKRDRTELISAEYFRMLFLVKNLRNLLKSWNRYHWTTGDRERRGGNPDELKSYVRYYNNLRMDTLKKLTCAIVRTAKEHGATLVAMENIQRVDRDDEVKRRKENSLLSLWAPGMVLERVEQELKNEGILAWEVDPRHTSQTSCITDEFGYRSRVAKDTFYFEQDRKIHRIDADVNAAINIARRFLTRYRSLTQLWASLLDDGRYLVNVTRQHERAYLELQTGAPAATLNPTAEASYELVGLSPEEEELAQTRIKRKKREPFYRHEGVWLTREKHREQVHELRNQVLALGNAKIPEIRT", "excerpt": "as §1, §2"}},
  "data": [
    {"binder": "Cas12j19 FUT8-3 guide (DR + spacer, order inferred) ; FUT8-3 target (ssRNA ; dsDNA) RNA: GUGCUGCUGUCUCCCAGACGGGAGGCAGAACUGCACGAGGCUGUCUACAAUGGGGA DNA 1: ATGGAGGCTGTCTACAATGGGGA DNA 2: TCCCCATTGTAGACAGCCTCCAT", "values": [
      {"measurement": "activity", "setting": "Cas12j19 WT", "value": "~6", "unit": "%"},
      {"measurement": "activity", "setting": "enCas-SF02 (Cas12j19 …)", "value": "~90", "unit": "%"},
      {"measurement": "activity", "setting": "[1]", "value": "~90", "unit": "%"}
    ]}
  ]
}
